Assay results from the DeepSol protein solubility set.

Assay: soluble on expression in E. coli; label from the status in PepcDB or PDB records
In the case of “MTDSKYDYSDITPVDINTEEPQICQILYDEDYKQIMGLLLALMKAEEYSERALHITELGINELASHYTIWIYRFNILKNLPNRNLYDELDWCEEIALDNEKNYQIWNYRQLIIGQIMELNNNDFDPYREFDILEAMLSSDPKNHHVWSYRKWLVDTFDLHNDAKELSFVDKVIDTDLKNNSAWSHRFFLLFSKKHLATDNTIDEELNYVKDKIVKCPQNPSTWNYLLGIHERFDRSITQLEEFSLQFVDLEKDQVTSSFALETLAKIYTQQKKYNESRTVYDLLKSKYNPIRSNFWDYQISKLTSV”, the “soluble on expression in E. coli” value was “soluble”. For “MGSSHHHHHHGGTGENLYFQGGSGMAYRHQATDQFHRFLHNPHVVQPDGVDGLPRVKGDQQQWLNTEQWHGYSDTYLQRHMQYPATVELNNPAVNARHDLLYECLGLVYELYGGLAEDLQELHDDPLHPHFHRRIARIKRDRERIATELDKRYAKLHPTVKTVYDAFLVRRYYHLADWIEHVERKRERLINDLSPDVMEKTMRMRGIAEQYLRHLRALEHALYEDPLMGLLGGDRGTNVLDQYTPGELAMLRQKAAYFRNMRRFGANQLDADMHTH”, the “soluble on expression in E. coli” value was “soluble”. In the case of “MDHDKSKRLPPSYYTLLEASQEKETTSTKILAQYLDRSPATVRTQFQRIMEFLDVSSRYGALREAEKRGLIRRNKRATSAHHQENRSSL”, the “soluble on expression in E. coli” value was “not soluble”. For “MSTWRDSLLPASFRGVGFFIEKAVVPVGRKGQLHEFPQRDEPYFESLGKQAQVHTLTAFIVGRDCFEKRDNLLQALEKDGAGELVHPWLGRMQVQV”, the “soluble on expression in E. coli” value was “not soluble”. With “MSLDFAARQAAFADALLHPDRPVPDGVINARGEPDAARFAVYRNNVFVGLTKALAQRFPVTERLVGSEFFAAMARAYVQDHKPASPLIMEYGDDFPDFVAAFEPAGTLVYLPDVARLEAAWTEAYHAADSAPLDLAAFGAVAPEMLSDLRLLPHPSARLILSNFPVGSIWSAHQEAVVSPVSDWGGQAVLVVRPEMSVNVHVLPPRDAVFAAALFNAATLGEAAEAAFAAAPEFDFGTALVGLAGIGAFRAFQQYKGNEGHHHHHH” the “soluble on expression in E. coli” value was “not soluble”. With “MSLRRPYEALRGHFEKCLATPLRPMNLRTLAGNDKGYIHTAVEQLGARTARSYRAIYSEVQKRSLDREINARLSPLESICRREFECCVELSELAEVYLRKMERGEICDADTSQPNEIIDDAQVDSIMKGEGYGGSGNSGGDSSVKRLIDVLESLRPHENLFDIVVNEEWICSPNFNNWLSRFCTRRVSWRVIHEHLLHLVGPGRYSPIIRTDPNVGSILRHTGTVVVEQYVRSIQSIHGGSMFIHMEEQPDLFTRVPSGRLATSSKVDCPIFPTTSMPPAPSSRVIYSVEGHLEYVFRELMKNACLAMRSRTNSIELQVCFASNDTHVVVDVTDAAGGIAPDAVEKLWLFGWTTNSSFDNKMGGFGIGLPASKCYMDLWGGRIDLYTTEGVGTTVRVIFPKAPTEVFVPKGTEGHHHHHH” the “soluble on expression in E. coli” value was “soluble”. For “MGSDKIHHHHHHMPGAYAHLTMVNLVKEPDRLEKQGFPPEAIVSILDYFRFCELGAVSPDYPYLDIAHSSAGQWADRMHYQRTGDMIKAGVEWIRRLDGASRQKAFSWLLGYTSHVVTDTTIHPVIELKVGEYQKNKDKHRICEMHQDAYIFQRLNLGEIGLAEHLDSGIWSCCDKPGSGKLDSVITRTWQSMLETCYAGACQTDPPLIDNWHGAFKFVVDKAEEGHALPPFARHVAANLGLTYPAVADLDPQYLESLATPLEAMSYDAIFDRALENVLATGSLIAKAVFQNDNSYATALVNCNLDTGKDDQGNHIYWKKGVS”, the “soluble on expression in E. coli” value was “not soluble”. With “MGSDKIHHHHHHMKIKKYVAESIREAMIMIRRELGENAVILSSRRIKKGGFFGIGGKTYFEVTAAVEEERKKEENTSYRLQEILVKNRQSSNDNIKGEFDEIKRTINEIKQMLVTEKRQTLPEGLSKILYGMEKQEILPEIRYKLIDFLKMKFGDLDPNSNETFKILSEQFVNLVKTNAPDFKNAKVLFVGTTGVGKTTSLAKLAARFKIDEKKRVAILTLDTYRIAAAEQLKIYADIMDIPMKIAYTPKEAEYEMMALKDYDIVLVDTAGRSHQNDLQMSELRALSEAVKPNITFLVLSMNYKLDDMKRIVERFSAVKPTHIILTKMDETSVYGTFVNISEITGLPIAFVTNGQRVPDDIFEANPVELARIVAGEVLNHARSSGTSEKE” the “soluble on expression in E. coli” value was “not soluble”. In the case of “MGSDKIHHHHHHATPAEIPFDAVLAGQTPMLFKGLVRDWPLVQAGLGSPQAARDYIRAHDRGVPVVGYTGDPAIKGRFFYNDTLTGLNFKAERAPLEAFLGRIEAVEGQENAPAIYIGSTDLDAYFPSLKAENDLGLGPEVYGPQPPMAGIWLGNRTVAAAHYDMSNNIAVCAVGRRRFTLFPPDQVANLYPGPLEPTPGGQVVSMVDFETPDFDRHPRFREALASAQVAEMEPGDVLVYPALWWHQVEALDGFNVLMNYWWNATPAFVDTPMTTLLHGLLSLRDRPDFEKQGWKALFDYYVFGPAERAGAHLPDDARGPLGALDDLKARRLRAWLLDRLNR”, the “soluble on expression in E. coli” value was “not soluble”. In the case of “LLESRELVEKIVSILEEKKAKDLNIIDIREISILADYFVICSGTSTTHIKTLADEVEEKMLEAGIELLHKEGYNSARWILLDYGEVVVHIFHEEDRQFYNLERLWADGVMKHRQ”, the “soluble on expression in E. coli” value was “soluble”. With “VQREDGSWLLDGLIAVPELKDTLGLRAVPEEEKGVYHTLSGMIMWLLGRLPQTGDITFWENWRLEVIDMDSKRIDKVLATKIDNQPTEDPKPVA” the “soluble on expression in E. coli” value was “soluble”. In the case of “MGSDKIHHHHHHMIKSVLVIRNDKIGDFVLTWPALYELKMALPNASIEVFVDPVLKDFAMACPYIDHVIVDDGDDQAITKAFAERHYDAVIVSRSQIRTYRLLRKLDIPYKLAPKLNWYQYLYQHRTSIEVPKGLGGWRKSCMMVERFLADHRIPVPTLPTRYWDLSHERRKWQDHYGQQGEERLIFAHPGTGGSSGGISPSDFAGLLAQVDKLTAIECKFVLTYSGQEIALAQQIYDLLSAQGIKVVMAEPLASLADFAKSLVAADMFMAGSTGPLHIAGLHNVPTVGFYAGRRSAPKVRWQTLTQSERRLAFTPPVGKKTGRNMALIDFDLAAKEIAAFLDTQYASQSAVS”, the “soluble on expression in E. coli” value was “not soluble”. For “PELPEVETSRRGIEPHLVGATILHAVVRNGRLRWPVSEEIYRLSDQPVLSVQRRAKYLLLELPEGWIIIHLGMSGSLRILPEELPPEKHDHVDLVMSNGKVLRYTDPRRFGAWLWTKELEGHNVLTHLGPEPLSDDFNGEYLHQKCAKKKTAIKPWLMDNKLVVGVGNIYASESLFAAGIHPDRLASSLSLAECELLARVIKAVLLRSIEQGGTTLKDFLQSDGKPGYFAQELQVYGRKGEPCRVCGTPIVATKHAQRATFYCRQCQK”, the “soluble on expression in E. coli” value was “soluble”. In the case of “MRLYLLAFLALFGMNAMAADNWKAFPYDQSAYDYPGDKLKEAWPRLTRGFGDYPYPDADWVVNMATAHPDALEKTVKAGTGFTGKPEEAAQYAARLQDVWRLLFRGDYAKAKEQGLALGVGGQVPAMFAQVLYAMFLAPGQAEKQRLLEEVIDYTEQAGPLVKADIVAQFGSVYAKARLAEELSVPVVLKRGYTSEIPKELDALLARQPNQPFALALYGGYEAGVIRKVGKLVGKMTYGVSADKMEQYFARSFRQANDLPIGHYEYANALTYVYGDDEREKAIAQLKQAVAIKPINAMEALEVAHAKKLLAGFEQNTAQR”, the “soluble on expression in E. coli” value was “not soluble”. For “MGSDKIHHHHHHMLFFSFILLPELDVTMEDSGRRIKNEYRAWKERKMTKLTVGLALGSGAAKGWAHIGVLNGLAKLDIYPDKVAGCSVGALVGAAYANNHLGELETWVSGFSSWDVLGLMDLGWRKGGLISGEKVFDVLANRIGDIDIEQLNRPFAAVATDLYSGQEIWFKEGDLRHAVRASCSMPGFLPPVQQGHRWVVDGAVVNPVPVSLARSMGVDVVIAVDLNGHRRGQMHLIPEQVKSRKASKSEPIDEKRELESGFMDLWGKGKDYMNGLTDKFSLGSSKSHPGMLAVMSQSMDILEQRHKRSRLMGEPPDICIVPDVGDIGTMEFHRAKEAIKAGEQAVNDIKHLIEATLK”, the “soluble on expression in E. coli” value was “not soluble”. In the case of “MGSDKIHHHHHHMQDLNDLYYFVQVVKHGGFAPAGRALGIPKSKLSRRITQLEERLDTRLIHRSTRRFSVTELGQAYYRHSVAMLVEAEAAEELIQRHHAEPQGTVRLSCSPSVLHYLITPLLVRFMARCPKVEVQVEATSRRVDVIKEGFDLAIRVRFPPLEDSDLTMKVLASSPQRLMAAPSLFAERPRPRSPADLVELPSLDFEQYDHRHCWDLVGPNGASAQVPHWPRLVTDSAETLHAAALEGLGVVKLGLLVGARDIQEGRLIDVLPGWEPRGGILHAAFPSRRGLLPAVRALLDFLDEQIADEDFDTQEALINSSPRG”, the “soluble on expression in E. coli” value was “not soluble”. In the case of “MVLADGELTVLGRIRSASNATFLCESTLGLRSLHCVYKPVSGERPLWDFPDGTLAGRELSAYLVSTQLGWNLVPHTIIRDGPAGIGMLQLWVQQPGDAVDSDPLPGPDLVDLFPAHRPRPGYLPVLRAYDYAGDEVVLMHADDIRLRRMAVFDVLINNADRKGGHILCGIDGQVYGVDHGLCLHVENKLRTVLWGWAGKPIDDQILQAVAGLADALGGPLAEALAGRIAAAEIGALRRRAQSLLDQPVMPGPNGHRPIPWPAFLEHHHHHH”, the “soluble on expression in E. coli” value was “not soluble”. With “MGSDKIHHHHHHMNKEIPKFLENTQIEKFICNELDYKKEILRELKELLENFNTINVKNSINSKYIALLMLSIFNAFHFKKELNKNLVNSLDAIIFAIKSIGTDESFIVLFKAFLHANVEVSSNEDAPGEIIIKLLGNIKSPIEFNIAAKNQNKLKKITAKHAGFKKALTSNYMPKDYKNSVYEFIKILIPIGRIVKIIDKKQIEIKGTRTKKFSTADHFF” the “soluble on expression in E. coli” value was “not soluble”. With “APPAAGQQQPPREPPAAPGAWRQQIQWENNGQVFSLLSLGSQYQPQRRRDPGAAVPGAANASAQQPRTPILLIRDNRTAAARTRTAGSSGVTAGRPRPTARHWFQAGYSTSRAREAGASRAENQTAPGEVPALSNLRPPSRVDGMVGDDPYNPYKYSDDNPYYNYYDTYERPRPGGRYRPGYGTGYFQYGLPDLVADPYYIQASTYVQKMSMYNLRCAAEENCLASTAYRADVRDYDHRVLLRFPQRVKNQGTSDFLPSRPRYSWEWHSCHQHYHSMDEFSHYDLLDANTQRRVAEGHKASFCLEDTSCDYGYHRRFACTAHTQGLSPGCYDTYGADIDCQWIDITDVKPGNYILKVSVNPSYLVPESDYTNNVVRCDIRYTGHHAYASGCTISPY” the “soluble on expression in E. coli” value was “soluble”. With “MNCRGHETRQRIVRDFEVQPKAHIKLLANQQKHSDAGATIEDEYYVFIAESKIDGKKEVIQCCMGAARDFLELINHKGLPLFNPLVGDSHVNNRQEYDNTGSGNL” the “soluble on expression in E. coli” value was “not soluble”. With “MGSDKIHHHHHHMATTVDTGDRRDNGKSVRRKLPRGAHAEIGNVDRDPVELLKISSEGRVRRLVPLRYGRMIESPFAFYRGSAIVQAHDLAGTPNSGLHIQICGDCHLANFGGFATPERALLFDLNDFDETSRGPWEWDLKRLAASFVVAARHLRHKQGVADDLVYQLVRSYQARMQGYGEMGILDTWYDHITFERLLGEETSPNIQRRIRRGMERAADRTSEALLPKLAERVGDKWTILDAPPAVFHVRGAHTLFDADDDWMTAKDIQAAAEKVYKEYLGTLAPDRQRLLSHFTLHDRAFKVVGVGSVGTRCMIQLMIDSHGKPMFLQIKEATRSVVARYFKGPAVSHDGRRVVEGQRLMQAASDLFLGWTKGPFGRDFYVRQLRDMKLSPQIELMDVEALGRYGALCGWVLARAHAKAGGLAAEISGYLGTSDRMAEVMVGYSNSYADQVEKDYERFVAACRSGRLEARTDADMAADFRV” the “soluble on expression in E. coli” value was “not soluble”. With “MLQHKILGLDVGSRTVGIAISDIMGWTAQGLDTLRINEENNELGIDQLVDIIKKHNVGTVVIGLPKNMNNSIGFRGEASLTYKEKLLEAYPSIEIVMWDERLSTMAAERSLLEADVSRQKRKQVIDKMAAVFILQGYLDSLHLEHHHHHH” the “soluble on expression in E. coli” value was “soluble”. With “ELPDFFQGKHFFLYGEFPGDERRKLIRYVTAFNGELEDYMSDRVQFVITAQEWDPSFEEALMDNPSLAFVRPRWIYSCNEKQKLLPHQLYGVVPQA” the “soluble on expression in E. coli” value was “soluble”.
